Measured values published in patent US10385327B2, “Enhanced E. coli for the production of fatty acids and method of producing the same” (University of Puerto Rico, priority 2012, dated 2019).

Substrate: C/C=C/C(=O)SCCNC(=O)CCNC(=O)[C@H](O)C(C)(C)COP(=O)(O)OP(=O)(O)OC[C@H]1O[C@@H](n2cnc3c(N)ncnc32)[C@H](O)[C@@H]1OP(=O)(O)O
Assay: Kinetic assay of dehydratase activity: hydration of crotonyl-CoA monitored at 235 nm, fit to Michaelis-Menten equation
Type: biochemical, Photobacterium profundum
Conditions: other: crotonyl-CoA, hydration reaction, substrate 0-600 μM, 25 mM Tris, 150 mM NaCl, 10% glycerol, pH 8.0
Experimental: For the cloning of fragments into pET200TOPO SEQ.ID15, the amplified DNA was gel purified using a Gel Extraction Kit and incubated with pET200TOPO. The resulting clones were selected in LB-agar containing kanamycin (100 μg/mL). All resistant clones were introduced into E. coli strain SEQ.ID16 BL21-DE3-Codon Plus-RIL and grown in liquid LB at 37° C. until the OD600=0.4 at which time the temperature was decreased to 22° C.° until the OD600=0.6 at which time protein expression was induced with 1 mM IPTG. […]
Dehydratase activity was measured in a hydration assay by using Crotonyl-CoA and Crotonyl-NAC as substrates. […] The values for the absorbance slope (given in mAU/min) were converted to units of μmole of product per minute by using the following equation: μmole of product/min=[Slope/ε×b]×Voltotal (Eq1)
in which the slope is given by the instrument in units of milliabsorbance (mAU) per minute, b is the path length measured to be 0.89 cm for a Voltotal=200 μl in our 96-well plates. The ε is the molar extinction coefficient resulting from the loss of a double bond as defined by the difference in absorbance between crotonyl-CoA and β-hydroxybutyryl-CoA at a particular wavelength. The extinction coefficient was calculated to be ε=969.9 M^−1 cm^−1 for the reaction monitored at 260 nm and ε=790.7 M^−1 cm^−1 for the reaction monitored at 235 nm. […]

B1: DH1-DH2-UMA (His-tagged dehydratase tetradomain fragment, I1096-N-Term, of pfaC PUFA synthase from Photobacterium profundum; pfaC SEQ.ID17, GenBank AF409100.1; … (protein)
chain: IRKPCIWDYEDLVEYAEGDIANVFGPDYAVIDNYSRRVRLPTTDYLLVSRVTKLDATMLEYKPSTMTTEYDIPVDAPYLVDGQIPWAVAVESGQCDLMLISYLGIDFENKGERVYRLLDCTLTFLGDLPRGGDTLRYDISINNFARNGDTLLFFFSYECFVGDKMVLKMDNGCAGFFTDEELSDGKGVIRTEDEIKSRNLAVKQRFNPLLHCQKTQFDYQTLHNLLDANIAGCFGESHISDRHQPSLCFSSDKFMMIEQISHVDPQGGTWGLGLIEGHKQLEADHWYFPCHFKDDSVMAGSLMAEGCGQLLQFFMMYLGMHTQVENGRFQPLENAPQQVRCRGQVLPQSAVLTYRMEVTEIGLSPRPYAKANIDILLDGKVVVDFQNLGVMIKEESECTRYLGSSDFDSASLASSSYVAESAPAQADVITPVEAPISQQASANAPLMAQIPDLNTAPNKGVIPLQHIEAPIVPDYQNRTPDTVPFTPYHMFEFATGDIEKCFGPDFSIYRGMIPPRTPCGDLQLTTRVIEVNGTRGDFKTPSSCIAEYEVPENAWYFDENSHSSLMPYSVLMEISLQPNGFISGYMGTTLGFPGLELFFRNLDGSGKMLRNVDLRGKTIVNDSRLLSTVMMGTNIVQSFSFELSTDGVPFYEGTAVFGYFKGAALKDQLGLDNGQVTYPWHVNNNRTPDVSINLLDKESRYFNAPLSATGEAQPHYQLAGGRLNFIDKVDITSDGGKAGLGYLYAERTIDPSDWFFQFHFHQDPVMPGSLGVEAIIELMQTYALNKDLGAGFRSPKFGQIQSEVKWKYRGQINPLNKQMSLDVHITAIKDEDGKRIIVGDANLSKDGLRIYEVKDIAICIEEA
Km: 156 µM | Vmax: 0.0001 μmol product/min
